From US20230035037A1 (published 2023) come the findings set out here.

In assay [1] the target is T1, LRPAP1 (signal peptide), V-variant: C-terminal serine replaced by valine peptide on HLA-A*02:01 (human).
T1 peptide: FLGPWPAAV
Nature of the assay: titration of short peptide on HLA-A*0201 positive T2 cells or EBV-JY cells; cytokine secretion by the LRPAP1-specific T cell clone (FIG. 1d, 1e); T cell clone or line.

Assay [2] deals with T2, LRPAP1 (signal peptide) peptide on HLA-A*02:01 (human).
T2 peptide: FLGPWPAAS
The description is as above.

In assay [3] the target is T3, LRPAP1 (signal peptide), L-variant at position 9 peptide on HLA-A*02:01 (human).
T3 peptide: FLGPWPAAL
The assay is described as above.

Assay [4] deals with T4, LRPAP1 (signal peptide), I-variant at position 9 peptide on HLA-A*02:01 (human).
T4 peptide: FLGPWPAAI
The description is as above.

Assay [5] addresses … (SEQ ID NO: 16) presented by HLA-A*0201 on peptide-pulsed cells (human). In words: cell-based or functional assay.
Assay [6] deals with … (SEQ ID NO: 18) presented by HLA-A*0201 on peptide-pulsed cells (human). Nature of the assay: cell-based or functional assay.
The target in assay [7] is … (SEQ ID NO: 2) presented by HLA-A*0201 on cells (human). Nature of the assay: cell-based or functional assay.
Assay [8] has as its target … (SEQ ID NO: 1) presented by HLA-A*0201 on peptide-pulsed cells (human). Nature of the assay: cell-based or functional assay.

B1: TCR of the LRPAP1-specific T cell clone 1A8 (TCR, V domains shown)
Valpha: RKEVEQDPGPFNVPEGATVAFNCTYSNSASQSFFWYRQDCRKEPKLLMSVYSSGNEDGRFTAQLNRASQYISLLIRDSKLSDSATYLCVVMGYGQNFVFGPGTRLSVLP
Vbeta: GAVVSQHPSWVICKSGTSVKIECRSLDFQATTMFWYRQFPKQSLMLMATSNEGSKATYEQGVEKDKFLINHASLTLSTLTVTSAHPEDSSFYICSAMGRQSTDTQYFGPGTRLTVL
For the molecule B1, the EC50 of peptide in assay [1] amounted to 0.1 µg/mL; in assay [2], 1.9 µg/mL; in assay [3] it was 3.7 µg/mL; in assay [4], 0.7 µg/mL. Also, the EC50 of the T cell response to peptide-pulsed HLA-A*0201 positive cells (functional T cell avidity) in assay [5] is 0.7 µg/mL; in assay [6], 3.7 µg/mL; in assay [7] it was 1.9 µg/mL; in assay [8], 0.1 µg/mL. For the same molecule, the T cell activation, V-peptide against S-peptide in assay [8] amounted to 19 fold.
